Assay results from patent US9963688B2, “Heavy metal resistant esterase” (AMERICAN UNIVERSITY OF CAIRO, priority 2013, dated 2018).
“And” between values parts separate entries of the source, which are not always exact repeats. Equal values may be shown once.

Key:
Assay type in all cases: biochemical
[1] = Effect of temperature on EstATII esterase activity (p-nitrophenyl butyrate hydrolysis)
Method: (§1) Enzyme activity was determined by measuring the formation of p-nitrophenol (pNP) from the enzymatic hydrolysis of the p-nitrophenyl ester; p-nitrophenyl butyrate (Sigma-Aldrich). The reaction mixture contained p-nitrophenyl butyrate (pNPB) to a final concentration 0.1 mM and 50 mM Tris-HCl pH=8. In this study, the standard reaction was conducted at 65° C., initiated by the addition of EstATII and terminated by the addition of 10% SDS. Measurements were done at 410 nm using UV-spectrophotometer (Ultrospec 3100 pro, Amersham Biosciences) unless stated otherwise^20. All experiments were performed in triplicates. Substrate specificity of EstATII was determined using p-nitrophenol esters with varying side chain length. Short-chain fatty acid esters used were PNP-acetate (C2), PNP-butyrate (C4) and PNP-valerate (C5) and long-chain fatty acid esters used were PNP-decanoate (C10), PNP-dodecanoate C12, PNP-myristate (C14) and PNP-palmitate (C16). The optimum temperature for the activity of EstATII was determined at a temperature range 30-80° C. The optimum pH for the activity of EstATII was measured at a pH range (3-9.5) using the following buffers: 50 mM sodium acetate (pH 3-5.5), 50 mM sodium phosphate (pH 6, 7.5) and 50 mM Tris-HCL (pH 7.5-9.5). Formation of pNP was measured at 348 nm (the pH-independent isosbestic wavelength of pNP)^21. The effect of NaCl concentration on enzyme activity was measured at different NaCl concentrations (0-4.5 M) under standard assay conditions. To assess the effect of metal ions on enzyme activity, cations were added to a final concentration of 1 mM, and relative activity measured at the above-described standard conditions. The effect of detergents (at final concentrations 0.1 and 1%) and inhibitors (final concentration 1 mM) on enzyme activity was tested at the above-described standard assay conditions.

[2] = Effect of pH on EstATII esterase activity (pNP formation measured at 348 nm)
Method: as §1

[3] = Substrate specificity of EstATII
Method: as §1

[4] = Effect of NaCl concentration on EstATII activity; settings: for Relative Activity: absence of NaCl defined as 100%
Method: as §1

[5] = Effect of metal ions on EstATII activity
Method: as §1

[6] = Effect of detergents, reducing and modifying agents on EstATII activity; settings: standard assay conditions
Method: as §1

[7] = cation 1 mM, standard conditions

B1: EstATII: novel esterase from the lower convective layer of the Atlantis II brine pool, Red Sea; 314 amino acids, HSL family (protein)
chain: MSRYVDELYRNPGQPGLRALLRGMLKLLFRGLIRPPVPFAVQALVLRLLTLGMPLARGVTRSTEQIAGRPCMWHRPAAGGNGRVLLYLHGGAFVIGSPQTHRGICSALASRGQFDVCALDYRLAPAHPAPAACDDAVAAYQALLQRGYAPAQITLIGDSAGGNLVLVTAQKLAALKLPLPASLVCFSPVTDMTAEQLHAPAAGDPLLHPSWLDSARDAYCPAGLDRADPMVSPLFGQLKGLPPLLLQVGEDEVLLNDSLRLAEAARAADVAVRLERYEDLWHVFQAHAGLLHSADAALQRVVDFVNSAQTDSVS
Relative Activity ([1]; 30 °C, pNPB 0.1 mM, 50 mM Tris-HCl pH 8, 65 °C defined as 100%): 56.3 ± 0.8% | Relative Activity ([1]; 35 °C, 65 °C defined as 100%): 59.9 ± 1% | Relative Activity ([1]; 40 °C, 65 °C defined as 100%): 65.3 ± 1.8% | Relative Activity ([1]; 45 °C, 65 °C defined as 100%): 86.9 ± 0.9% | Relative Activity ([1]; 50 °C, 65 °C defined as 100%): 90.9 ± 2% | Relative Activity ([1]; 55 °C, 65 °C defined as 100%): 93.9 ± 1% | Relative Activity ([1]; 60 °C, 65 °C defined as 100%): 95.9 ± 0.3% | Relative Activity ([1]; 65 °C, optimum condition (defined as 100%)): 100 ± 0.2% | Relative Activity ([1]; 70 °C, 65 °C defined as 100%): 91.6 ± 0.15% | Relative Activity ([1]; 75 °C, 65 °C defined as 100%): 76.7 ± 0.3% | Temp ° C. (apparent optimum temperature) ([1]; range tested 30-80 °C): 65 °C | Activity of the enzyme ([1]; temperatures ranging from 45° C. to 75° C.): > 70% | Relative Activity ([2]; pH 3, 50 mM sodium acetate, pH 8.5 defined as 100%): 0% | Relative Activity ([2]; pH 4, 50 mM sodium acetate, pH 8.5 defined as 100%): 0% | Relative Activity ([2]; pH 5, 50 mM sodium acetate, pH 8.5 defined as 100%): 0% | Relative Activity ([2]; pH 5.5, 50 mM sodium acetate, pH 8.5 defined as 100%): 13.1 ± 0.2% | Relative Activity ([2]; pH 6, 50 mM sodium phosphate, pH 8.5 defined as 100%): 38.5 ± 1.2% | Relative Activity ([2]; pH 6.5, pH 8.5 defined as 100%): 43.2 ± 2% | Relative Activity ([2]; pH 7, pH 8.5 defined as 100%): 81.5 ± 1% | Relative Activity ([2]; pH 7.5 (Na Phosphate), pH 8.5 defined as 100%): 88 ± 1% | Relative Activity ([2]; pH 7.5 (Tris.HCl), pH 8.5 defined as 100%): 66.1 ± 0.2% | Relative Activity ([2]; pH 8, 50 mM Tris-HCl, pH 8.5 defined as 100%): 84.7 ± 1.1% | Relative Activity ([2]; pH 8.5, optimum condition (defined as 100%)): 100 ± 3% | Relative Activity ([2]; pH 9, 50 mM Tris-HCl, pH 8.5 defined as 100%): 60 ± 2% | Activity of the enzyme ([2]; pH lower than 5.5): No activity | Activity of the enzyme ([2]; pH=7-9): > 50% | pH (highest activity) ([2]; range tested pH 3-9): 8.5 | Activity towards short-chain fatty acid esters ([3]; C2, C4 and C5 p-nitrophenol esters): active | Activity towards long-chain fatty acid esters ([3]; C10, C12, C14 and C16 p-nitrophenol esters): no activity | Relative Activity ([3]; substrate pNP-acetate (C2)): 100 ± 3% | Relative Activity ([3]; substrate pNP-butyrate (C4)): 61.9 ± 0.8% | Relative Activity ([3]; substrate pNP-decanoate (C10)): 0% | Relative Activity ([3]; substrate pNP-dodecanoate (C12)): 0% | Relative Activity ([3]; substrate pNP-myristate (C14)): 0% | Relative Activity ([3]; substrate pNP-palmitate (C16)): 0% | Relative Activity ([3]; substrate pNP-valerate (C5)): 40.5 ± 1.2% | Relative Activity ([4]; 0.5M Sodium Chloride): 102.2 ± 2% | Relative Activity ([4]; 1M Sodium Chloride): 99.9 ± 0.5% | Relative Activity ([4]; 1.5M Sodium Chloride): 120 ± 1% | Relative Activity ([4]; 2M Sodium Chloride): 122.9 ± 1% | Relative Activity ([4]; 2.5M Sodium Chloride): 102.4 ± 1.8% | Relative Activity ([4]; 3M Sodium Chloride): 73.8 ± 3.8% | Relative Activity ([4]; 3.5M Sodium Chloride): 65.3 ± 4.6% | Relative Activity ([4]; 4M Sodium Chloride): 53.8 ± 1% | Relative Activity ([4]; 4.5M Sodium Chloride): 39.7 ± 1.7% | NaCl concentration of highest activity ([4]; range tested 0M-4.5M NaCl): 2 M | Activity ([4]; up to 4M NaCl): > 50% | Enzyme activity ([4]; up to 4.5M NaCl): maintained | Relative activity with Ba^2+ [5, 7]: 158% and 158.3 ± 2.2% | Relative activity with Co^2+ [5, 7]: 104% and 104 ± 2% | Relative activity with Cu^2+ [5, 7]: 94.8 ± 0.1% | Relative activity with Fe^3+ [5, 7]: 96.2 ± 0.7% | Relative activity with Hg^2+ [5, 7]: 60.9 ± 0.4% | Relative activity with Mg^2+ [5, 7]: 90.6 ± 3.6% | Relative activity with Mn^2+ [5, 7]: 111% and 111.8 ± 0.1% | Relative activity with Zn^2+ [5, 7]: 85.2 ± 4.4% | Relative activity with Ca^2+ ([5]; cation 1 mM, standard conditions (65 °C, Tris-HCl pH 8, pNPB)): 94.8 ± 3% | Activity with the rest of the metal ions tested ([5]; metal ions other than Barium, Manganese, Cobalt, 1 mM): above 60% | Resistance to inhibition by all metal ions tested ([5]; significantly inhibited = relative activity below 50%): showed resistance to inhibition by all metal ions tested | Effect of EDTA chelation on enzyme activity ([5]; with and without EDTA chelation): not affected | Relative Activity ([6]; CTAB 1 mM): 13.1 ± 1.9% | Relative Activity ([6]; DTT 1 mM): 78.9% and 78.9 ± 4.2% | Relative Activity ([6]; SDS 0.1%): 6% and 6.1 ± 0.4% | Relative Activity ([6]; Triton X-100 0.1%): 42.3% and 42.2 ± 1.1% | Relative Activity ([6]; Tween 20 0.1%): 87.5% and 87.5 ± 2.3% | Relative Activity ([6]; Tween 20 1%): 40.1% and 40.1 ± 0.9% | Relative Activity ([6]; Tween 80 1%): 54.5% and 54.5 ± 0.7% | Relative Activity ([6]; β-mercaptoethanol 1 mM): 117.9% and 117.9 ± 0.3%
